Measured values published in patent US20180327506A1.

How the values were obtained:
[1] = target: full-length mature cynomolgus EMR2 (residues Q24-N816) with N-terminal aspartic acid/lysine epitope tag, overexpressed on HEK293T cells (cynomolgus monkey (Macaca fascicularis))
[2] = target: full-length mature cynomolgus EMR2 (residues Q24-N816) with N-terminal aspartic acid/lysine epitope tag, overexpressed on HEK293T cells (cynomolgus monkey (Macaca fascicularis)); test: flow cytometry on transduced HEK293T; 293 naive MFI ND
[3] = target: full-length mature cynomolgus EMR2 (residues Q24-N816) with N-terminal aspartic acid/lysine epitope tag, overexpressed on HEK293T cells (cynomolgus monkey (Macaca fascicularis)); test: flow cytometry on transduced HEK293T; 293 naive MFI 96.8

full-length mature cynomolgus EMR2 (residues Q24-N816) with N-terminal aspartic acid/lysine epitope tag, overexpressed on HEK293T cells (cynomolgus monkey (Macaca fascicularis)), sequence (chain, as listed by the source): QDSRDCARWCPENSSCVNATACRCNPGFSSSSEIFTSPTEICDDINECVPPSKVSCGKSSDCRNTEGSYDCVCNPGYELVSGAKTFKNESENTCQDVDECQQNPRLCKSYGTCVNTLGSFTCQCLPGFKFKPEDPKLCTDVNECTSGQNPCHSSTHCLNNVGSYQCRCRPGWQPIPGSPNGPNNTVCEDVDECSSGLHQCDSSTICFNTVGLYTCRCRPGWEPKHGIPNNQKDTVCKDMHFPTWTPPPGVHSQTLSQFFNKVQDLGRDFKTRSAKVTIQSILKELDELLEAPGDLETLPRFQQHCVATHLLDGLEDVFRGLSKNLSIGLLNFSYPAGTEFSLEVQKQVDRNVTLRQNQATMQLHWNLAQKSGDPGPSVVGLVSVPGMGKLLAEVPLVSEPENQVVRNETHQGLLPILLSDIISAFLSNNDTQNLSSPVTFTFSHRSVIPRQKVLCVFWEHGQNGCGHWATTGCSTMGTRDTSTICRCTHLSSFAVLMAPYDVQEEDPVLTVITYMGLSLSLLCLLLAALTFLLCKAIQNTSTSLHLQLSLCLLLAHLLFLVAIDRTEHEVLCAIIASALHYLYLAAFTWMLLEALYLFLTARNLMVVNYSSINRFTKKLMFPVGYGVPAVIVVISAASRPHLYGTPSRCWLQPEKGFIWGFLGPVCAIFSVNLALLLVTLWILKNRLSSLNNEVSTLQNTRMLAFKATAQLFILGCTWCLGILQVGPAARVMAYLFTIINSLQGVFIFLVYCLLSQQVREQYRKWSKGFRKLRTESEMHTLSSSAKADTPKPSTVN

B1: SC93.15 (antibody, IgG1, V domains shown)
VH: EVQLQQSGPELVKPGASVKISCKGSGYTFTDYFMNWVKLSHGKSLEWIGEINPNNGGTNYNQKFKGKATLTVDKSSSIAYMELRSLTSEDSAVYYCARPGTNYWGPGTTLTVSS
VL: DIVMTQSHKFMSTSVGDRVSITCKASQNVGTSVAWYQQKPGHSPKLLIYWASTRHTGVPDRFTGSGSGTDFSLTISSVQSEDLTDYFCQQYSSYPLTFGGGTKLEIK
% live, FAB-saporin killing assay [1]: 101%
FC MFI [2]: 41.2

B2: SC93.216 (antibody, IgG1, V domains shown)
VH: EVQLVESGGGLVKPGGSLKLSCAASGFTFSSYGMSWVRQTPEKRLEWVAAIHSNGDITYYPDTVKGRFTISRDNAKNTLYLQMSSLTSEDTALYYCANLAYWGQGTLVTVSA
VL: EIQMTQSPSSMSASLGDRITITCQATQDIVKNLNWYQQKPGKSPSSLIYYATELAEGVPSRFSGSGSGSDYSLTISNLESEDFADYYCLQFYEFPLTFGAGTKLELK
% live, FAB-saporin killing assay [1]: 105%
FC MFI [3]: 220
